The source of these data is the nanobody polyreactivity screen of Harvey et al. (2022).

The data set in a line: yeast display, Sf9 membrane polyspecificity reagent, FACS + sequencing; frameworks hold sequencing errors. A digest of the protocol:
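Genes from sorted yeast were amplified by colony PCR, read by MiSeq 2 × 250 sequencing and filtered on CDR length. These cells carried a synthetic nanobody library in Saccharomyces cerevisiae BJ5465 and were sorted by FACS into low and high (top ~1%) gates on anti-HA and streptavidin fluorescence. Polyreactivity is labelled according to the gate of origin.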
In the case of “QVQLVESGGGLVQAGGSLRLSCAASGNIFLRYAMGWYRQAPGKERELVAAISYSGGGSTYYADSVKGRFTISRDNAKNTVYLQMNSLKPEDTAVYYCAKVLTSRTQFFDYDYWGQGTQVTVSS”, the “polyreactivity (PSR sort gate)” value is on record as “low polyreactivity”. As to “QVQLVESGGGLVQAGGSLRLSCAASGSTLDSYARGWYRQAPGTERELVAVIDTGGTTNYADSVKGRFTISRDNAKNTVYLQMNSLKPEDTAVYYCAADYAYYGYWFEGYDYWGQGTQVTVSS”, the “polyreactivity (PSR sort gate)” value was “low polyreactivity”. In the case of “QVQLVESGGGLVQAGGSLRLSCAASGRTFGSYAMGWYRQAPGKEREFVAAIYYGGGRTYYADSVKGRFSISRDNAKNTVYLQMNSLKAVDTAVYYCAADGVYRYNYPYLYTYDYWGQGTQVTVSS”, the “polyreactivity (PSR sort gate)” value is recorded as “low polyreactivity”.

For “QVQLVESGGGLVHAGGSLRLSCAASGSIFYPYAMGWYRKAPGKERELVAAISRSGGRTYYADSVKGRFTISRDNAKNTVYLQMNSLKPEDTAVYYCNAYYPGNGPRSTSTRYEYWGQGTQVTVSS”, the “polyreactivity (PSR sort gate)” value was “high polyreactivity”. The result for “QVQLVESGGGLFQAGGSLRLSCAASGRTIYLNAMGWYRQAPLKERELVAAITSSGGRTYYADSVKGRFTISRDNAKNSVYLQMNSLKPEDTAVYYCAAVVSSKPSFYWGQGSQVTVSS” reads “low polyreactivity”.

Consider “QVQLLESWGGLVQAGGSLRLSCAASGRTSTRNAMGWYRQAPGNERELVAAISWSGGRTHYADSVKGRFTISRDNAKNTVYLQMNSLKPEDTAVYYCAAAYTGGQKYYSWGQGTEVTVSS”, for which the “polyreactivity (PSR sort gate)” value is given as “high polyreactivity”. As to “QVQLVESGGGLVQAGGSLRLRCAASGSNFVSYAMGSYRQAPGKERELVATITTSTGSTYADSVKGRFTISRDNAKNTVYLLMYSLKPEDTAVYYCAARYLPWLKYDFDSWGQGTQVTVSS”, the “polyreactivity (PSR sort gate)” value is “low polyreactivity”. Regarding “QDQLQESGGGLVQAGGSLRLSCAASGRIIYGYAMGWYRQAPGKERELVAAITATYYADSVKGRFTISRDNAKNTVYLQMNSLKPEDTAVYYCNAYLSPKQPLSPPDPTFEGGYWGQGTQVTVSS”, the “polyreactivity (PSR sort gate)” value was “low polyreactivity”. As to “QVQLVDSGRGLVQAGGSLRLSCAASGSIFYYNTMGWYRQAPVKERELVAAISSSDGSTYYADSVKGRFTISRDNAKNTVYLQMNSLKPEDTAVYYCNADLIYGEEYDYWGQGTQVTVSS”, the “polyreactivity (PSR sort gate)” value is “low polyreactivity”. In the case of “QVQLVESGGGLVQAGGILRLSCASSGFTFSLYDMGWYRQAPRKDRELVADINGSGGSTYYADSVKGRFTISRDNAKNTVYLQLNILKPEDTAVYYCAAGPPSRWWYIVDYGYWGQGTQVTVSS”, the “polyreactivity (PSR sort gate)” value is reported as “high polyreactivity”. The entry for “QVQLVESGGGLVQAGGSLRLSCAAYGGIFYSNGMGWYRQAPGKERELVAAITGGDITDYADSVKGRFTISRDNAKNTVYLQMNSLKPEDTAVYYCAVESYPPDYGPRFGSWGQGTQVTVSS” is “low polyreactivity”; for “QVQLVESGGRLVQAGGSLRLSCAASGRIFAYYAMGWYRQAPGKERELVAAISRSGVSTYYADSVKGRFTISRDNAKNTVYLQMNSLKPEDTAVYYCAARWRSGFTSGDYWGQGTQVTVSS” it is “low polyreactivity”. As to “QVQLVESGGGLVQAGGSLRLSCAASGFTFGTYVMGWYRQAPGKERELVARITYGGGRTYYADSVKGRFTISRDNAKNTVYLQMNSLKPEDTAVYYCNARVTYSRYFKGYNYWGQGTQVTVSS”, the “polyreactivity (PSR sort gate)” value is “high polyreactivity”. For the sequence “QVQLVESGGGLVQAGGSLRLSCAASGSTFYPNAMGWYRQAPGKERELVAAISRGTRTKYADSVKGRFTISRDNAKNTVYLQMNSLKPEDTAVYYCAKRYYGSPQLRYYYWGQGTQVTVSS”, the “polyreactivity (PSR sort gate)” value is recorded as “high polyreactivity”. As to “QVQLVESGGGLVQAGGSLRLSCAASGSIFFSNAMGWYRQAPGKEREFVATITSSGVGTYYADSVKGRFTISRDNAKNTVYLQMNSLKPEDTAVDYCDADYNSQEDYWGQGTQVTVSS”, the “polyreactivity (PSR sort gate)” value was “low polyreactivity”. “QVQLVESGGGLVQAGGILRLSCAASGFIFWYNAMGWYRQAPGKERELVARINIGGTTSYADSVKGRFTISRDNAKNNVYLQMNSLKREDTAVYYCNAVQGRQYDYWGQGTQVNVSS”: the “polyreactivity (PSR sort gate)” value is recorded as “low polyreactivity”.

For “QVQLVESGGGLVQAGGSLRLSCAASGNIFVAYPMGWYRKATGKERELVAVISNGGRTYYADSVKGRFTISRDNAKNTVYLQMNSLKPEDTAVYYCATVAHASYGWHNYWGQGTQVTVSS”, the “polyreactivity (PSR sort gate)” value is reported as “high polyreactivity”. With “QVQLVESGGGLVQAGGSLRLSCAASGFTFAPNAMAWYRQAPGKERELVAAITWSGGSTYYADSVKGRFTISRDNAKNTVYLQMNSLKPEDTAVYYCNAVSRSTVTGQHDYWGQGTQVTVSS”, the “polyreactivity (PSR sort gate)” value was “high polyreactivity”. For “QVQLVESGGGLVQAGGSLRLSCAASGYIFGYYVMGWYRQAPGKERELVAAISDSDITYYADSVKGRFTISRDNAKNTVYLQMNSLKPEDTAVYYCNKDHSLYEHNYWGQGTLVTVSS”, the “polyreactivity (PSR sort gate)” value is listed as “low polyreactivity”. Turning to “QVQLVESGGGLVQAGGSLRLSCAASGITIQGYAMGWYRQAPGKERELVAAINDSGSSTYYADSVKGRFTISRDNAKNTFYLQMNSLKPEYTAVYYCAAYLWLWGQGTQVTVSS”, the “polyreactivity (PSR sort gate)” value was “low polyreactivity”.

Turning to “QVQLVESGGGLVQAGGSLRLSCAASGSIFSYYAMGWYRQAPGKEREFVAAITKSGGSTYYADSVKGRFTISRDNAKNTVYLQMNSLKPEDTAVYYCAVRYKLYYYRYDYWGQGTQVTVSS”, the “polyreactivity (PSR sort gate)” value is “low polyreactivity”. “QVQLVESGGGLVQAGGSLRLTCAASGFTFYGYAMGRYRQAPGKERELVAAISSSGTSTYSGDSVKGRFTISRDNAKNTVYLQMNSLKPEDTAVYYCAKDFYRRFYSWGQGTQVTLSS”: the “polyreactivity (PSR sort gate)” value is “high polyreactivity”. The entry for “QVQLVESGGGLVQAGGSLRLSCAASGFIFRSYAMGWYRQAPGKERELVAGISYRGGSTYYADSVKGRFTISRDNAKNTVYLQMNSLKPEDTAVYYCAATAWYNWYFGLDYWGQGTQVTVSS” is “high polyreactivity”; for “QVQIVESGGGLVQAGGSLRLSCAASGFIFFAYAMGWYRQAPGKERELFAAISRTGGSTYYADSVKGRFTISRDNAKNTVYLQMNSLKPEDTAVYYCAADGGYYGRDYWGQGTQVTVSS” it is “high polyreactivity”; for “QVQLVESGGGLVQAGGSLRFSCAASRRTFANNAMGWYRQAPGKERELVAAISSGGNTYYADSVKGRFTISRDNAKNTVYLQMNSLKPEDTAVYYCAARYWIYRSEYDYWGQGTQVTVSS” it is “high polyreactivity”. On to “QVQLVESGGGLVKAGGSLRLSCDSSGGTFSTYAMGWYRQAPGKERELVAAISWRGGSTYYAVSVKGRFTISRDNAKNTVYLQMNSLKPEYNAVYYCAAYYYRGWLLYWDEMYYWGQGTQVTVSS”, for which the “polyreactivity (PSR sort gate)” value was “high polyreactivity”.

As to “QVQLVESGGGLVQAGGSLRLSCAASGRIFTYYAMGWYRQAPGKERELVAAISTRGGNTYYADSVKGRFTISRDNAKNSVYLQMNSLKPEDTAVYYCSKENYYGGGFDYWGQGTQVTVSS”, the “polyreactivity (PSR sort gate)” value is reported as “high polyreactivity”. “QVQLVESGGGLVQAGGSLRLSCAASGIIFEYYAMVWYRQAPGKDRELVAAISRSSVSTYYADSVKGRFTISRDNAKNTVYLQMNSLKPEDTAVYYCAARQGYGYYKYGKYYYWGQGTQVTVSS”: the “polyreactivity (PSR sort gate)” value is “high polyreactivity”.

Regarding “QDQLVESGGGLVQAGGSHRLTCAASGFIFAYYAMGWYRQAPGKERELVAAISRSGARTYYADSVKGRFTISRDNAKNTVYLQMKSLKPEDTAVFYCSARIIVDVVGTKYYYWGQGTQVTVSS”, the “polyreactivity (PSR sort gate)” value is on record as “high polyreactivity”. For the sequence “QVQLVESGGGLVQAGGSLRLSCAASGITFYPYAMGWYSQAPGKEWELVADITWSGGSTYYADSVKGRFTISRDNAKNTVYLQMNSLKPEDSAVYYCNRKSYRLRSKVRGQYLLGYDWGQGTQVTVSS”, the “polyreactivity (PSR sort gate)” value is recorded as “high polyreactivity”.

Take “QVQLVESGGGLVQAGGSLRLSCAASGRTFRANAMGWYRQAPGKERELVAAITWDGGSTYYADSVKGRFTISRDNAKNTVYLQMNSLKPEDTAVYYCNTDPYLWGQGTQVTVSS”: the “polyreactivity (PSR sort gate)” value is “low polyreactivity”. Turning to “QVQLVESGGGLVQAGGSLRLSCAASGRTFYYYTMGWYRQPPRKEREFVAAISWSGGSKYYADSVKGRFTISRDNAKNTVYLQMNSLIPEDTAVYYCNARSFATGSKVPARGYWVQGTQVTVSS”, the “polyreactivity (PSR sort gate)” value was “high polyreactivity”. With “QVQLVESGGGLVQAGGSLRLSCAASGSIFWGYAMGWYRQAPGKERELVAAIRNGGSTNYADSVKGRFTISRDNAKNTVYLQMNSLKPEDTAVYYCAKYYYYLRSARKYDYWGQGTQVTVSS”, the “polyreactivity (PSR sort gate)” value is given as “high polyreactivity”. The result for “QVQLLESGGGLVQAGGSLRLSCAASGFTFSRYAMGWYRQAPGKERELVAAITSSGGSTYYADSVKGRFTISRDNAKNTVYLQMLSLKPEDSAVYYCAAGKYTASNGYGYWGQGTQVTVSS” reads “high polyreactivity”.

As for “QVQLVESGGGLVQAGGSLRLSCAASGRTFYGNAMGWYRQAPGKERELVAAITTGGGNTYYADSVKGRFTISRDHAKNTVYLQMNRLKPEDTAVYYCAAYERKFYTVSRWYKLDYWGQGTQVTVSS”, the “polyreactivity (PSR sort gate)” value is reported as “high polyreactivity”. Regarding “QVQLVESGGGLVQAGGSLRLSCAASGRTFGGNAMGWYRQAPGKERQLVASISSSGGRTYYAVSVKGRFTISRDNAKNTVYLQMNSLKPEDTAVYYCAVAWNVRGVGARQRYIYGYWGQGTQVTVSS”, the “polyreactivity (PSR sort gate)” value is given as “high polyreactivity”. The entry for “QVQLVESGGGLVQAGGSLRLSCAASGSIFYWYAMGWYRQAPGKERELVAAISSSGSTNYADSVKGRFTISRDNAKNTVYLQMNSLKPEDTAVYYCAAYRTGYNGWGYGYWGQGTQVTVSS” is “high polyreactivity”; for “QVQLVESGGGLDQAGGSLRLSCAASGFTFRFYAIGWYRQAPGKERELVAAIDTSGGRTYYADSVKGRFTISRDNANNTVYLQMNSLKPEDTAVYYCNAQVLYRYDYWGQGTQVTVSS” it is “high polyreactivity”. Consider “QVQLVESGGGLVQAGGSLRLSCAASGFTFRRYAMGWYRQAPGKERELVAVITSTDSTYYADSVKGRFTISRDNAKNTVYFQMYSLKPEDTAVYYCARVYLGPRYAVFIYGYWGQGTQVTVSS”, for which the “polyreactivity (PSR sort gate)” value is “high polyreactivity”. Regarding “QVQLVESGGGLVQAGGSLRLSCAASGSTFRANAMGWYRQAPGKERELVAAISSGGSTYYADSVKGRFTISRDNAKNTVYLQMNSLKPEDTAVYYCAAVTVKYDESGIYYSDDDYWGQGTQVTVSS”, the “polyreactivity (PSR sort gate)” value was “high polyreactivity”. On to “QGQLVESCGGLVQAGGSLLLSCAASGRIFRSYAMGGYRPAPGKERELVASMSTGGSTNYADSVKGRFTFSRDTAKNSGYLQKNRLKPEDTAVYYCAAGPYYKYWGQRYNYWGQGTQVTVSS”, for which the “polyreactivity (PSR sort gate)” value is listed as “high polyreactivity”.
